For orientation: Kd means the constant that tells how readily two partners part at equilibrium. Lower therefore signals a tighter complex.

The target in this test is T1, Activated protein C (Homo sapiens, UniProt P04070).
T1 chain 1: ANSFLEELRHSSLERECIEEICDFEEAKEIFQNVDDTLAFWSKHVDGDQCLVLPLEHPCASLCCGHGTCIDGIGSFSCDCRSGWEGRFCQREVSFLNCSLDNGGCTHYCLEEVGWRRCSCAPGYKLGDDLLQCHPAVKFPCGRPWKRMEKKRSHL
T1 chain 2: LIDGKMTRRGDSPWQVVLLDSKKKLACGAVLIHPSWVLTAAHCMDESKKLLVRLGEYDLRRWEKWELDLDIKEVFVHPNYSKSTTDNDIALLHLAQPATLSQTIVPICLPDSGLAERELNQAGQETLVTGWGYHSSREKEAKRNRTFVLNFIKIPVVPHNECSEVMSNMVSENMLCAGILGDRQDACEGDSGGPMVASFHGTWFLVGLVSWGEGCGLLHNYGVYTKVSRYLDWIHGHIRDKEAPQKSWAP
Kind of test: flow cytometry. For orientation: In flow cytometry, cells or beads pass a laser one at a time.

B1: Endothelial protein C receptor (protein)
chain: SQDASDGLQRLHMLQISYFRDPYHVWYQGNASLGGHLTHVLEGPDTNTTIIQLQPLQEPESWARTQSGLQSYLLQFHGLVRLVHQERTLAFPLTIRCFLGCELPPEGSRAHVFFEVAVNGSSFVSFRPERALWQADTQVTSGVVTFTLQQLNAYNRTRYELREFLEDTCVQYVQKHISAENTKGSQTSRSYTS
modifications: fluorescently labelled APC
Turning to B1, the Kd stood at 77 nM.

The values above are taken from publication PMC4115806 (2014).
